This note sets out measurements from the RNAGym collection of RNA variant scans (doi:10.7554/elife.80360).

First the molecules themselves.
B1: Hairpin Ribozyme (parent)
chain: GUCCUCUUUCACGUGCGCGUGAAAGAGAGAAGUGAACCAGAGAAACACACGUUGUGGUAUAUUACCUGGUA

In this data set the parent is B1. The data set is described as follows: self-cleavage, relative activity (ratio to wild type); higher = more cleavage; co-transcriptional.
For the variant GUCCUCUUUCACGUGCGCGUGAAAGAGAGAAGUGAACCAGACAAACACACGUUGUGGUAUAUUACCUGGUU [G42C A71U], the self-cleavage was 0.142. Next, GUCCUCUUUCACGUGCGCGUGAAAGAGAGAAGUGAACCAGAGAAACACACGUUGUGGUAUAUUCCCUCGUA [A64C G68C]: 0.273; GUCCUCUUUCCCGUGCGCGUGAAAGAGAGAAGUGAACCAGAGAAACACACCUUGUGGUAUAUUACCUGGUA [A11C G51C]: 0.8.

In the case of GUCCUCUUUAACGUGCGCGUGAAAGAGAGAAGUGAACCAGAGAAACACACGUUGUGGAAUAUUACCUGGUA [C10A U58A], the self-cleavage turned out to be 0.485.

Consider GUCCUAUUUCACGUGCGCGUGAAAGAGAGAAGUGAACCAGAGAAACACACGUUGUGGUUUAUUACCUGGUA [C6A A59U], for which the self-cleavage is 0.107. Next, GUCCUCUUUCACGUGCGCGUGAAGGAGAGAAGUGAACCAGAGAAACACACGUUGUGGUAUAUGACCUGGUA [A24G U63G]: 0.154. For GUCCUCUUUCACGUGCGCGUGAAAGAGAGAAGUGAACCAGAAAAACACACGUUGUGGUAUAUUUCCUGGUA [G42A A64U], the self-cleavage was found to be 0.107. To GUCCUCUUUCACGUGCGCGUCAAAGAGAGAAGUGAACCAGAGGAACACACGUUGUGGUAUAUUACCUGGUA [G21C A43G] belongs 0.104.

Turning to GUCCUCUUUCACGUACGCGUGAAAGAGAGAAGUGAACCAGAGAAACACACGUUGUGGUAUAUUACCUGUUA [G15A G69U], the self-cleavage was determined as 0.217.

For GUCCUCUUUCACGUGCGCGUGAAAGAUAGAAGUAAACCAGAGAAACACACGUUGUGGUAUAUUACCUGGUA [G27U G34A], the self-cleavage amounted to 0.282.

In the case of GUCCUCUUUCACGUGCGCGUGAAAGAGAGAAGUGAACCAUAGAAACACACGUUGUGGUAUAUUCCCUGGUA [G40U A64C], the self-cleavage is 0.175.

On to CUCCUCUUUCACGUGCGCGUGAAAGAGAGAAGUGAACCAGAGCAACACACGUUGUGGUAUAUUACCUGGUA [G1C A43C], for which the self-cleavage was 0.0543. To GUCCUCUUUCACGUGCGCGUGAAAGAGAGAAGUCAACCAGAGAAACACACGGUGUGGUAUAUUACCUGGUA [G34C U52G] belongs 0.379; to GUCCUCUUUCACGUGCGCGGGAAAGAGAGAUGUGAACCAGAGAAACACACGUUGUGGUAUAUUACCUGGUA [U20G A31U], 0.0664. Consider GUCCUCUUCCACCUGCGCGUGAAAGAGAGAAGUGAACCAGAGAAACACACGUUGUGGUAUAUUACCUGGUA [U9C G13C], for which the self-cleavage was 0.447. To GUCCUCUUUCAGGUGCGCGUGAUAGAGAGAAGUGAACCAGAGAAACACACGUUGUGGUAUAUUACCUGGUA [C12G A23U] belongs 0.753; to GUCCUCUUUCGCGUGCGCGUGAAAGAGAGAAGUGAACCAGAGCAACACACGUUGUGGUAUAUUACCUGGUA [A11G A43C], 0.0944; to GUCCUCUGUCACGUGCGCGUGAAAGAGAGAAGUGAACCAGAGAAACACACGUUGUGGUAUAUUACCUGGAA [U8G U70A], 0.715. As for GUCCUCUUCCACGUGCGCGUGAAAGAGAGAAGUGAACCAGAGUAACACACGUUGUGGUAUAUUACCUGGUA [U9C A43U], the self-cleavage turned out to be 0.298. Next, GUCCUCUUUCACGUGCGCGUGAAAGAGAGAAGUGAACCAGAAAAACAGACGUUGUGGUAUAUUACCUGGUA [G42A C48G]: 0.127. To GUCCUCUUUCACGUGCGCGUGAAAGAGAGAAGUGAAUCAGAGAAACACACGUUGUGGUAUAUUACCUGCUA [C37U G69C] belongs 0.364.

For GUCCUCUUUCACUUGCGCGUGAAAGAGAGAAGUGAACCAGUGAAACACACGUUGUGGUAUAUUACCUGGUA [G13U A41U], the self-cleavage was found to be 1.15. Next, GUCCUCUUUCACGUGCGCGUGAAAGCGAGAACUGAACCAGAGAAACACACGUUGUGGUAUAUUACCUGGUA [A26C G32C]: 0.175. As for GUCCUCUUUCACAUGCCCGUGAAAGAGAGAAGUGAACCAGAGAAACACACGUUGUGGUAUAUUACCUGGUA [G13A G17C], the self-cleavage is 0.507. To AUCCUCUUUCCCGUGCGCGUGAAAGAGAGAAGUGAACCAGAGAAACACACGUUGUGGUAUAUUACCUGGUA [G1A A11C] belongs 0.139; to GUCUUCUUUCACGUGCGCGUGAAAGAGAGAAGUGAACCAGAGAAACACACGUUGUGGUAUAUUAUCUGGUA [C4U C65U], 0.175. Next, GUCCUCUUUCACGUGCGCGUGCAAGAGAGAAGUGAACCAGAGAAACACACGUUGUGGUAUAUUACAUGGUA [A22C C66A]: 0.216.

With GUCCUCUUUCACGUGCGCGUGAUAGAGAGAAGUGAACCAGAGAAACACACGUUGUGGUAUAUUACCUGGUG [A23U A71G], the self-cleavage was 0.876. For UUCCUCUUUCACGUGCGCGUGAAAGAGAGAAUUGAACCAGAGAAACACACGUUGUGGUAUAUUACCUGGUA [G1U G32U], the self-cleavage was 0.0476. In the case of GUCCUCUUUCACGUGCGCGUGAAAGGGAGAAGUGAACCAGAGAAACACACGUUGUGGUAUAUUACCUGGUG [A26G A71G], the self-cleavage was found to be 0.935. As to GUCCUCUUUCACGUGCGCGUGAAAGAGAGUAGUGAACCAGAGAAACAAACGUUGUGGUAUAUUACCUGGUA [A30U C48A], the self-cleavage worked out at 0.209. Regarding GUCCUCUCUCACGUGCGCGUGAAAGAGAGAAGUGACCCAGAGAAACACACGUUGUGGUAUAUUACCUGGUA [U8C A36C], the self-cleavage came to 0.671. To GUCCUCUUUCACGUGCGCGUGAAAGAGAGAAGUGAACCAGAGAAACACACGUUGUGGUCAAUUACCUGGUA [A59C U60A] belongs 0.223. Next, GUCCUCUUUCACGUGCGCGUGAAAGAGAGAAGUGAACCAGAGAAACACACGUUGUCGUAUAUUGCCUGGUA [G56C A64G]: 0.148; GUCCUCUUUCACGUGCGCGUGAAAGAGAGAAGUGAACCAGAGAAACACACGUAGUGGUAUAUUACCUGGCA [U53A U70C]: 0.951; GUCCUCGUUCACGUGCGCGUGAAAGAGAGAAGUGAACCAGCGAAACACACGUUGUGGUAUAUUACCUGGUA [U7G A41C]: 0.863. To GUCCUCUUUCACUUGCGCGUGAAAGAGAGAAGUGAACCAGAGAAACACACGUUGUGGUCUAUUACCUGGUA [G13U A59C] belongs 0.161; to GUCCUCUUUCACGUGCGCGUGGAAGAGAGAAGUGAACCAGUGAAACACACGUUGUGGUAUAUUACCUGGUA [A22G A41U], 0.921.
